Test results reported in US20170281792A1 (Genentech, published 2017).
Changes are numbered by the printed parent chain.

Key:
[1] = target: T1, E. coli derived recombinant human mesothelin (human, UniProt Q13421 296-580); experiment: Biacore-2000, IgG over immobilised E. coli derived human mesothelin, 1:1 fit
T1 construct: not shown: N-terminal unizyme His (HQ)-tag
Protocol: (§1) 7D9 variants were expressed as IgG by CHO transient transfection. IgG was purified with protein G affinity chromatography. The affinity of each 7D9 IgG variant for human mesothelin was determined by surface plasmon resonance using a BIACORE™-2000. BIACORE™ research grade CM5 chips were immobilized with approximately 110 RU of E. coli derived recombinant human mesothelin using the amine coupling kit from BIACORE™. […] Each sample was analyzed with 5-minute association and 3.5-minute dissociation. After each injection the chip was regenerated using 10 mM Glycine pH 1.7. Binding response was corrected by subtracting the RU from a flow cell with an irrelevant IgG immobilized at similar density. A 1:1 Languir model of simultaneous fitting of kₒₙ and koff was used for kinetics analysis.

[2] = target: T1, E. coli derived recombinant human …; experiment: SPR (Biacore), IgG over immobilized E. coli derived human mesothelin
Protocol: as §1
The human acceptor framework used for humanization of 7D9 is based on the human VL kappa I consensus (VLKI) and the acceptor VH framework VHATA, which differs from the human VH subgroup III consensus (VHIII) at 3 positions: R71A, N73T, and L78A (Carter et al., Proc. Natl. Acad. Sci. USA 89:4285 (1992)). The VL and VH domains of murine 7D9 were aligned with the human VLKI and VHIII domains; hypervariable regions were identified and grafted into the human acceptor framework to generate 7D9.v1 (FIGS. 4 and 5).

[3] = target: T2, gD epitope-tagged rat mesothelin expressed on cells (rat, UniProt Q9ERA7 298-582); experiment: Scatchard analysis on BJAB cells stably expressing gD-tagged rat mesothelin
T2 sequence: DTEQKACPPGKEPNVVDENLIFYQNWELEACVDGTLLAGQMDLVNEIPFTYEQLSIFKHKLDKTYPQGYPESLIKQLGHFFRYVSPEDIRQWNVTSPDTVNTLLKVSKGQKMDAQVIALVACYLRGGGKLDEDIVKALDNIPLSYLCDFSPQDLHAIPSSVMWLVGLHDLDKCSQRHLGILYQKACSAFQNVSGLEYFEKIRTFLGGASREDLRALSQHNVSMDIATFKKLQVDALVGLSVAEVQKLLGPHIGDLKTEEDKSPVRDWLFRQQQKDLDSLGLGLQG

[4] = target: T3, gD epitope-tagged cynomolgus monkey mesothelin expressed on cells (construct #383) (cynomolgus monkey); experiment: Scatchard analysis on BJAB cells stably expressing gD-tagged cyno mesothelin
T3 construct: also called cyno mesothelin
T3 chain: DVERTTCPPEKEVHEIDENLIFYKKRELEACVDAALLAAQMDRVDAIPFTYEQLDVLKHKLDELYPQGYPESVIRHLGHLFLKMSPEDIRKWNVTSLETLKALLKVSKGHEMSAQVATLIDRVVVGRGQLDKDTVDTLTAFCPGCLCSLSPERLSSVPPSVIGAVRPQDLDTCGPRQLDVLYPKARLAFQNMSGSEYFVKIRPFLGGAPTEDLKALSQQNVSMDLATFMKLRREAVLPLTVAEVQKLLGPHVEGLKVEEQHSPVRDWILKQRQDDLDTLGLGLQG

[5] = target: T4, gD epitope-tagged mouse mesothelin expressed on cells (construct #385) (mouse, UniProt Q61468 298-582); experiment: FACS on stably transfected 293 cells
T4 sequence: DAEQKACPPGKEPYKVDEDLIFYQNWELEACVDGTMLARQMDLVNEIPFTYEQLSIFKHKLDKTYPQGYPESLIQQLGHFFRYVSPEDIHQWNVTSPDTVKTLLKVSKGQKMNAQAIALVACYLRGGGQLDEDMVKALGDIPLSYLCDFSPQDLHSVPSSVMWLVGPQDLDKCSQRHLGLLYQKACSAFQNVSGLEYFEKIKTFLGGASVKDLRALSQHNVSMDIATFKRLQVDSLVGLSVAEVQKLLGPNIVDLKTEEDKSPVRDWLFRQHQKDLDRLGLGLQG
Protocol: Monoclonal antibodies were tested to determine if they cross-react with mesothelin from species other than human. […] Shaded residues are identical between at least two species. Unshaded residues differ between at least two of the four species. […] Anti-gD staining verified that mouse mesothelin was indeed expressed.

[6] = target: T5, human mesothelin on cells (endogenous on tumour cell lines and tissue, or stably expressed on A431 or HT1080 … (human, UniProt Q13421 296-580)); experiment: Scatchard; endogenous human mesothelin on cell lines
T5 construct: also called endogenous mesothelin; endogenous human mesothelin
Protocol: (§2) The data was analyzed with non-linear regression curve fitting in the New Ligand program (Genentech, Inc., South San Francisco, Calif.) to estimate Kd values (Munson et al., Anal. Biochem., 107 220-239 (1980)).

[7] = target: T6, endogenous rat mesothelin on the normal pleural cell line 4/4-RM4 (rat, UniProt Q9ERA7 298-582); experiment: Scatchard on the normal rat pleural cell line 4/4-RM4
T6 sequence: T2 sequence
Protocol: as §2

[8] = target: T7, gD epitope-tagged human mesothelin expressed on cells (construct #387) (human, UniProt Q13421 296-580); experiment: Scatchard, 125I-labelled antibody on stably transfected 293 cells
T7 construct: also called gD-human mesothelin; gD-tagged human mesothelin
Protocol: as §2

[9] = target: T2, gD epitope-tagged rat mesothelin …; experiment: as above
Protocol: as §2

[10] = target: T7, gD epitope-tagged human mesothelin …; experiment: Scatchard, 125I-labelled antibody on stably transfected BJAB cells
Protocol: as §2

[11] = target: T2, gD epitope-tagged rat mesothelin …; experiment: as above
Protocol: as §2

[12] = target: T7, gD epitope-tagged human mesothelin …; experiment: Scatchard, 125I-labelled antibody on stably transfected HT1080 cells
Protocol: as §2

[13] = target: T5, human mesothelin on cells (endogenous …); experiment: Scatchard analysis (125I-labelled antibody) on HPAC cells, endogenous mesothelin
Protocol: as §2

[14] = target: T5, human mesothelin on cells (endogenous …); experiment: Scatchard analysis (125I-labelled antibody) on AsPC1 cells, endogenous mesothelin
Protocol: as §2

[15] = target: T5, human mesothelin on cells (endogenous …); experiment: Scatchard analysis (125I-labelled antibody) on Capan2 cells, endogenous mesothelin
Protocol: as §2

[16] = target: T5, human mesothelin on cells (endogenous …); experiment: Scatchard analysis (125I-labelled antibody) on OvCar3 cells, endogenous mesothelin
Protocol: as §2

[17] = target: T5, human mesothelin on cells (endogenous …); experiment: Scatchard analysis (125I-labelled antibody) on HPAF-II cells, endogenous mesothelin
Protocol: as §2

[18] = target: T3, gD epitope-tagged cynomolgus monkey …; experiment: Scatchard analysis (125I-labelled antibody), row 'Cyno 293', stably transfected cells
Protocol: as §2

[19] = target: T5, human mesothelin on cells (endogenous …); experiment: Scatchard analysis (125I-labelled antibody) on OvCar3x2.1 cells, endogenous mesothelin
Protocol: as §2

[20] = target: T3, gD epitope-tagged cynomolgus monkey …; experiment: Scatchard analysis (125I-labelled antibody), row 'Cyno BJAB', stably transfected cells
Protocol: as §2

[21] = target: T3, gD epitope-tagged cynomolgus monkey …; experiment: Scatchard analysis (125I-labelled antibody), row 'Cyno HT1080', stably transfected cells
Protocol: as §2

T1 sequence (Q13421 other isoform, or with tags, fused parts or gaps): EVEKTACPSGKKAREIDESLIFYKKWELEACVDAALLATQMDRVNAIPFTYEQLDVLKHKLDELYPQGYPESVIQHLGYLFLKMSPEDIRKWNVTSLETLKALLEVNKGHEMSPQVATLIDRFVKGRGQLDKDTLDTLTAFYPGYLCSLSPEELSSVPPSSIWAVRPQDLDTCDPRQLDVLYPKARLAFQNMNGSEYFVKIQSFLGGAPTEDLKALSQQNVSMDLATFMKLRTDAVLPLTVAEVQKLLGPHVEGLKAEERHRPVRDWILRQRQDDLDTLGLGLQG
T5 sequence (Q13421 other isoform, or with tags, fused parts or gaps): as above
T7 sequence (Q13421 other isoform, or with tags, fused parts or gaps): as above

B1: 7D9.v5 (antibody, V domains shown)
VH: EVQLVESGGGLVQPGGSLRLSCAASGYTFTTYWMHWVRQAPGKGLEWVGYIRPSTGYTEYNQKFKDRFTISADTSKNTAYLQMNSLRAEDTAVYYCARSRWLLDYWGQGTLVTVS
VL: DIQMTQSPSSLSASVGDRVTITCKSSQSVLYSSNQKNYLAWFQQKPGKAPKLLIYWASTRESGVPSRFSGSGSGTDFTLTISSLQPEDFATYYCHQYLSSYTFGQGTKVEIK
B1 showed a Kd [1] of 3.49 nM.

B2: 7D9.v1 (antibody, V domains shown)
VH: B1 VH
VL: B1 VL with F42Y
notes: also called direct-graft 7D9.v1
With B2 the “fold decrease in affinity relative to mu7D9 (chimeric 7D9)” value [2] was ~2 fold and the Kd [1] was 3.98 nM.

B3: 7D9.v6 (antibody, V domains shown)
VH: B1 VH
VL: B1 VL with F42Y, Y93F
In the case of B3, the Kd [1] is reported as 4.08 nM.

B4: chimeric 7D9 (antibody, V domains shown)
VH: QVQLQQSGAELAKPGASVKMSCKASGYTFTTYWMHWVKQRPGQGLEWIGYIRPSTGYTEYNQKFKDKATLTADKSSSTAYMQLSSLTSEDSTVYYCARSRWLLDYWGQGTSLTVS
VL: DIMMTQSPSSLAVSAGEKVTMSCKSSQSVLYSSNQKNYLAWFQQKPGQSPKLLIYWASTRESGVPDRFTGSGSGTDFTLTISSVQAEDLAVYFCHQYLSSYTFGGGTKVEIK
notes: also called ch7D9; mu7D9 (formatted as a chimeric 7D9)
B4 was tested, and the Kd [1] was 1.84 nM.

B5: 22A10 graft (antibody, V domains shown)
VH: EVQLVESGGGLVQPGGSLRLSCAASGFTFSDYFMSWVRQAPGKGLEWVATISNGGTYTYYPDSVKGRFTISRDNSKNTLYLQMNSLRAEDTAVYYCARFDGYYFDYWGQGTLVTVSS
VL: DIQMTQSPSSLSASVGDRVTITCRASQDISNYLNWYQQKPGKAPKLLIYYTSRLHSGVPSRFSGSGSGTDFTLTISSLQPEDFATYYCQQGNTLPYTFGQGTKVEIK
notes: also called hu22A10graft; 22A10 CDR graft
B5 showed a Kd [3] of 1.9 nM and a Kd [4] of 1 nM.

B6: humanized monoclonal antibody 22A10.v83 (antibody, V domains shown)
VH: B5 VH with Y103I
VL: DIQMTQSPSSLSASVGDRVTITCRASQDISNYLNWYQQKPGKAPKLLIYYTSRLHSGVPSRFSGSGSGTDFTLTISSLQPEDFATYYCQQGNTLPYTFGQGTKVEIKR
notes: also called h22A10.v83; hu22A10.v83
In the case of B6, the binding result [5] is reported as “no binding (tested: 10 µg/ml)”, the Kd [6] is reported as 9 to 10 nM and the Kd [7] is reported as 6.2 nM. The Kd [8] was 2.7 nM, the Kd [9] was 7.3 nM and the Kd [10] was 1.8 nM. For the same binder, the Kd [11] was 2.7 nM, the Kd [12] was 6.2 nM and the Kd [4] was 1.3 nM. The Kd [13] was 9.4 nM, the Kd [14] was 9.3 nM and the Kd [15] was 4.2 nM. The Kd [16] was 9.2 nM, the Kd [17] was 10.4 nM and the Kd [18] was 4.3 nM. For the same binder, the Kd [19] was 9 nM, the Kd [20] was 1.3 nM and the Kd [21] was 6.4 nM.
